{
  "source": "paper PMC11187563",
  "about": "“The importance of tyrosines in multimers of cyclic RGD nonapeptides: towards αvβ6-integrin targeted radiotherapeutics” (RSC Medicinal Chemistry, 2024)",
  "key": {"[1]": {"test_system": "αvβ6-integrin expressing human lung adenocarcinoma cell line H2009 xenografts", "assay": "Ex vivo biodistribution of 177Lu-labeled peptide tetramers in H2009 xenografted SCID mice", "conditions": "H2009 bearing SCID mice", "procedure": "(§1) The biodistribution of the ^177Lu-labeled peptide conjugates was investigated in severe combined immunodeficiency (SCID) mice bearing subcutaneous xenografts of the αvβ6-integrin expressing human lung adenocarcinoma cell line H2009 on their right shoulders. Two representative time points after i.v. administration (p.i.) were evaluated.\n(§2) Analytical HPLC was performed on a Shimadzu (Kyoto, Japan) Prominence HPLC system equipped with either a Dr. Maisch ReproSil Pur C18 AQ 150 × 4.6 mm, 5 μm, 120 Å (AC1) or a Phenomenex Kinetex C18 150 × 4.6 mm 5 μm column (AC2). Semipreparative HPLC was performed on a Shimadzu HPLC system equipped with either a Dr. Maisch ReproSil Pur C18 AQ 250 × 10 mm, 5 μm, 120 Å column with 5 mL min^−1 flow (PC1) or a Dr. Maisch ReproSil Pur C18 150 × 30 mm, 5 μm, 120 Å column with 20 mL min^−1 flow (PC2). Solvents for both systems were water (A) and acetonitrile (B) each supplemented with 0.1% (vol) trifluoroacetic acid (TFA). ESI-MS spectra (positive mode) were recorded on a Shimadzu LC-MS 2020 single quadrupol mass spectrometer. Solvents for MS applications were water (A) and acetonitrile (B) each supplemented with 0.1% (vol) formic acid. The other experimental procedures (determination of log D7.4, cultivation of H2009 human lung adenocarcinoma cells, generation of tumor xenografts in CB17 SCID mice, and biodistribution) were performed as described before.[28] All animal experiments have been carried out according to applicable law and institutional guidelines of Technical University of Munich, and were approved by the responsible local authority (Regierung von Oberbayern). The H2009 cells were regularly authenticated and tested for mycoplasma contamination. DOTPI-tetraazide,[43]FF (previously termed AvB6),[29]FY,[34] and YY (also referred to as Tyr2-alkyne)[36] were synthesized as described previously."}, "[2]": {"assay": "Ex vivo biodistribution of 177Lu-labeled peptide tetramers in H2009 xenografted SCID mice", "conditions": "CB17 SCID, mouse, iv, total radioactivity, H2009 bearing SCID mice; for tissue uptake at 72 h / tissue to tissue ratio at 72 h: 42 pmol, 3 d p.i.; for tissue uptake at 1.5 h / tissue to tissue ratio at 1.5 h: 139 pmol, 90 min p.i.", "procedure": "as §1, §2"}, "[3]": {"conditions": "H2009 tumor, read-out: Tumor H2009 %IA/g"}, "[4]": {"conditions": "adrenals, read-out: Adrenals %IA/g"}, "[5]": {"conditions": "heart (myocard), read-out: Heart (myocard) %IA/g"}, "[6]": {"conditions": "kidneys, read-out: Kidneys %IA/g"}, "[7]": {"conditions": "large intestine (empty), read-out: Large intestine (empty) %IA/g"}, "[8]": {"conditions": "pancreas, read-out: Pancreas %IA/g"}, "[9]": {"conditions": "small intestine (empty), read-out: Small intestine (empty) %IA/g"}, "[10]": {"conditions": "stomach (empty), read-out: Stomach (empty) %IA/g"}, "[11]": {"conditions": "tumor/blood, read-out: tumor/organ ratio, Blood"}, "[12]": {"conditions": "tumor/heart (myocard), read-out: tumor/organ ratio, Heart (myocard)"}, "[13]": {"conditions": "tumor/liver, read-out: tumor/organ ratio, Liver"}, "[14]": {"conditions": "tumor/lung, read-out: tumor/organ ratio, Lung"}, "[15]": {"conditions": "tumor/pancreas, read-out: tumor/organ ratio, Pancreas"}, "[16]": {"conditions": "tumor/spleen, read-out: tumor/organ ratio, Spleen"}},
  "note": "Like-named read-outs stand apart in the source and are kept apart here.",
  "data": [
    {"smiles": "CC(C)C[C@@H]1NC(=O)[C@H](CC(=O)O)NC(=O)CNC(=O)[C@H](CCCNC(=N)N)NC(=O)[C@H](Cc2ccccc2)NC(=O)[C@H](CCCCNC(=O)CCc2cn(CCCNC(=O)CCP(=O)(O)CN3CCN(CP(=O)(O)CCC(=O)NCCCn4cc(CCC(=O)NCCCC[C@H]5C(=O)N[C@@H](Cc6ccccc6)C(=O)N[C@@H](CCCNC(=N)N)C(=O)NCC(=O)N[C@@H](CC(=O)O)C(=O)N[C@@H](CC(C)C)C(=O)N[C@@H](C)C(=O)N[C@@H](Cc6ccc(O)cc6)C(=O)N6CCC[C@@H]6C(=O)N5C)nn4)CCN(CP(=O)(O)CCC(=O)NCCCn4cc(CCC(=O)NCCCC[C@H]5C(=O)N[C@@H](Cc6ccccc6)C(=O)N[C@@H](CCCNC(=N)N)C(=O)NCC(=O)N[C@@H](CC(=O)O)C(=O)N[C@@H](CC(C)C)C(=O)N[C@@H](C)C(=O)N[C@@H](Cc6ccc(O)cc6)C(=O)N6CCC[C@@H]6C(=O)N5C)nn4)CCN(CP(=O)(O)CCC(=O)NCCCn4cc(CCC(=O)NCCCC[C@H]5C(=O)N[C@@H](Cc6ccccc6)C(=O)N[C@@H](CCCNC(=N)N)C(=O)NCC(=O)N[C@@H](CC(=O)O)C(=O)N[C@@H](CC(C)C)C(=O)N[C@@H](C)C(=O)N[C@@H](Cc6ccc(O)cc6)C(=O)N6CCC[C@@H]6C(=O)N5C)nn4)CC3)nn2)N(C)C(=O)[C@H]2CCCN2C(=O)[C@H](Cc2ccccc2)NC(=O)[C@H](C)NC1=O", "note": "[Compound 177Lu-Y3, metal not drawn]", "values": [
      {"measurement": "tumor/organ ratio, Kidneys", "setting": "[1]; 90 min p.i.", "result": 0.0},
      {"measurement": "tumor/organ ratio, Kidneys", "setting": "[1]; 3 d p.i.", "result": 0.0},
      {"measurement": "tissue uptake at 72 h", "setting": "[2]; [3]", "result": 2.03, "unit": "%ID/g"},
      {"measurement": "tissue uptake at 1.5 h", "setting": "[2]; [3]", "result": 3.7, "unit": "%ID/g"},
      {"measurement": "tissue uptake at 72 h", "setting": "[2]; [4]", "result": 0.27, "unit": "%ID/g"},
      {"measurement": "tissue uptake at 1.5 h", "setting": "[2]; [4]", "result": 1.04, "unit": "%ID/g"},
      {"measurement": "tissue uptake at 72 h", "setting": "[2]; blood, read-out: Blood %IA/g", "result": 0.02, "unit": "%ID/g"},
      {"measurement": "tissue uptake at 1.5 h", "setting": "[2]; blood, read-out: Blood %IA/g", "result": 1.11, "unit": "%ID/g"},
      {"measurement": "tissue uptake at 72 h", "setting": "[2]; bone, read-out: Bone %IA/g", "result": 0.35, "unit": "%ID/g"},
      {"measurement": "tissue uptake at 1.5 h", "setting": "[2]; bone, read-out: Bone %IA/g", "result": 1.51, "unit": "%ID/g"},
      {"measurement": "tissue uptake at 72 h", "setting": "[2]; [5]", "result": 0.22, "unit": "%ID/g"},
      {"measurement": "tissue uptake at 1.5 h", "setting": "[2]; [5]", "result": 0.65, "unit": "%ID/g"},
      {"measurement": "tissue uptake at 72 h", "setting": "[2]; [6]", "result": 250, "unit": "%ID/g"},
      {"measurement": "tissue uptake at 1.5 h", "setting": "[2]; [6]", "result": 141, "unit": "%ID/g"},
      {"measurement": "tissue uptake at 72 h", "setting": "[2]; [7]", "result": 1.34, "unit": "%ID/g"},
      {"measurement": "tissue uptake at 1.5 h", "setting": "[2]; [7]", "result": 3.43, "unit": "%ID/g"},
      {"measurement": "tissue uptake at 72 h", "setting": "[2]; liver, read-out: Liver %IA/g", "result": 1.17, "unit": "%ID/g"},
      {"measurement": "tissue uptake at 1.5 h", "setting": "[2]; liver, read-out: Liver %IA/g", "result": 7.59, "unit": "%ID/g"},
      {"measurement": "tissue uptake at 72 h", "setting": "[2]; lung, read-out: Lung %IA/g", "result": 1.22, "unit": "%ID/g"},
      {"measurement": "tissue uptake at 1.5 h", "setting": "[2]; lung, read-out: Lung %IA/g", "result": 4.91, "unit": "%ID/g"},
      {"measurement": "tissue uptake at 72 h", "setting": "[2]; muscle, read-out: Muscle %IA/g", "result": 0.47, "unit": "%ID/g"},
      {"measurement": "tissue uptake at 1.5 h", "setting": "[2]; muscle, read-out: Muscle %IA/g", "result": 0.57, "unit": "%ID/g"},
      {"measurement": "tissue uptake at 72 h", "setting": "[2]; [8]", "result": 0.25, "unit": "%ID/g"},
      {"measurement": "tissue uptake at 1.5 h", "setting": "[2]; [8]", "result": 0.36, "unit": "%ID/g"},
      {"measurement": "tissue uptake at 72 h", "setting": "[2]; [9]", "result": 0.37, "unit": "%ID/g"},
      {"measurement": "tissue uptake at 1.5 h", "setting": "[2]; [9]", "result": 2.49, "unit": "%ID/g"},
      {"measurement": "tissue uptake at 72 h", "setting": "[2]; spleen, read-out: Spleen %IA/g", "result": 1.36, "unit": "%ID/g"},
      {"measurement": "tissue uptake at 1.5 h", "setting": "[2]; spleen, read-out: Spleen %IA/g", "result": 8.5, "unit": "%ID/g"},
      {"measurement": "tissue uptake at 72 h", "setting": "[2]; [10]", "result": 4.76, "unit": "%ID/g"},
      {"measurement": "tissue uptake at 1.5 h", "setting": "[2]; [10]", "result": 7.42, "unit": "%ID/g"},
      {"measurement": "tissue to tissue ratio at 72 h", "setting": "[2]; tumor / adrenals, read-out: tumor/organ ratio, Adrenals", "result": 8.4},
      {"measurement": "tissue to tissue ratio at 72 h", "setting": "[2]; tumor / bone, read-out: tumor/organ ratio, Bone", "result": 6.6},
      {"measurement": "tissue to tissue ratio at 72 h", "setting": "[2]; tumor / large intestine (empty), read-out: tumor/organ ratio, Large intestine (empty)", "result": 2.3},
      {"measurement": "tissue to tissue ratio at 72 h", "setting": "[2]; tumor / muscle, read-out: tumor/organ ratio, Muscle", "result": 5.3},
      {"measurement": "tissue to tissue ratio at 72 h", "setting": "[2]; tumor / small intestine (empty), read-out: tumor/organ ratio, Small intestine (empty)", "result": 6.6},
      {"measurement": "tissue to tissue ratio at 72 h", "setting": "[2]; tumor / stomach (empty), read-out: tumor/organ ratio, Stomach (empty)", "result": 0.5},
      {"measurement": "tissue to tissue ratio at 1.5 h", "setting": "[2]; tumor/adrenals, read-out: tumor/organ ratio, Adrenals", "result": 3.9},
      {"measurement": "tissue to tissue ratio at 72 h", "setting": "[2]; [11]", "result": 129},
      {"measurement": "tissue to tissue ratio at 1.5 h", "setting": "[2]; [11]", "result": 3.4},
      {"measurement": "tissue to tissue ratio at 1.5 h", "setting": "[2]; tumor/bone, read-out: tumor/organ ratio, Bone", "result": 2.5},
      {"measurement": "tissue to tissue ratio at 72 h", "setting": "[2]; [12]", "result": 9.4},
      {"measurement": "tissue to tissue ratio at 1.5 h", "setting": "[2]; [12]", "result": 5.8},
      {"measurement": "tissue to tissue ratio at 1.5 h", "setting": "[2]; tumor/large intestine (empty), read-out: tumor/organ ratio, Large intestine (empty)", "result": 1.1},
      {"measurement": "tissue to tissue ratio at 72 h", "setting": "[2]; [13]", "result": 1.9},
      {"measurement": "tissue to tissue ratio at 1.5 h", "setting": "[2]; [13]", "result": 0.6},
      {"measurement": "tissue to tissue ratio at 72 h", "setting": "[2]; [14]", "result": 1.7},
      {"measurement": "tissue to tissue ratio at 1.5 h", "setting": "[2]; [14]", "result": 0.8},
      {"measurement": "tissue to tissue ratio at 1.5 h", "setting": "[2]; tumor/muscle, read-out: tumor/organ ratio, Muscle", "result": 6.6},
      {"measurement": "tissue to tissue ratio at 72 h", "setting": "[2]; [15]", "result": 10.6},
      {"measurement": "tissue to tissue ratio at 1.5 h", "setting": "[2]; [15]", "result": 10.3},
      {"measurement": "tissue to tissue ratio at 1.5 h", "setting": "[2]; tumor/small intestine (empty), read-out: tumor/organ ratio, Small intestine (empty)", "result": 1.5},
      {"measurement": "tissue to tissue ratio at 72 h", "setting": "[2]; [16]", "result": 1.7},
      {"measurement": "tissue to tissue ratio at 1.5 h", "setting": "[2]; [16]", "result": 0.5},
      {"measurement": "tissue to tissue ratio at 1.5 h", "setting": "[2]; tumor/stomach (empty), read-out: tumor/organ ratio, Stomach (empty)", "result": 0.5}
    ]}
  ]
}
